Measured values published in article doi:10.1101/568972v1 (biorxiv, 2019).
Each block holds one molecule with its values, some of them ahead of it.

Columns and labels:
[1] = biological target: T1, AceKMs (Mycolicibacterium smegmatis, UniProt A0QQK1); experiment: HPLC of ATP/ADP, steady-state kinetics; assay type: biochemical; details: read-out: KM (substrate); ADP in excess; 10 mM MgCl2, pH 9.0, room temperature
T1 sequence (A0QQK1 1-376): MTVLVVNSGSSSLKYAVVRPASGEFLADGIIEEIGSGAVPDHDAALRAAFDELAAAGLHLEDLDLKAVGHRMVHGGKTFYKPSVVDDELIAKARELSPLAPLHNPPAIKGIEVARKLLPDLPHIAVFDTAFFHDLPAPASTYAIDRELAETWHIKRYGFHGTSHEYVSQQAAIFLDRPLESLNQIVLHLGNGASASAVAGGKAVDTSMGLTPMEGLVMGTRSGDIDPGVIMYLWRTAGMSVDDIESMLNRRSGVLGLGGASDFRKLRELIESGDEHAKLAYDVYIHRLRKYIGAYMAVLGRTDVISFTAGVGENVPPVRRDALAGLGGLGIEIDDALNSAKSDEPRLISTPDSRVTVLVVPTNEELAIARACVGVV

[2] = substrate: O=C(CO)COP(=O)(O)O; experiment: purified protein; details: acceptor aldehyde not stated; 'DHAP' printed as table sub-heading
[3] = substrate: NC(=O)c1ccc[n+]([C@@H]2O[C@H](COP(=O)(O)OP(=O)(O)OC[C@H]3O[C@@H](n4cnc5c(N)ncnc54)[C@H](O)[C@@H]3O)[C@@H](O)[C@H]2O)c1; experiment: purified protein, by the assay type
[4] = substrate: O=P(O)(O)OC[C@H](O)CO; experiment: purified protein, by the assay type
[5] = substrate: O=P(O)(O)OC[C@H](O)CO; experiment: purified protein; details: NAD+ co-substrate, 50 mM sodium phosphate pH 9.0, ambient temperature
[6] = substrate: OCC(O)CO; experiment: purified protein, by the assay type; details: pH 9.0
[7] = substrate: OCC(O)CO; experiment: purified protein; assay type: biochemical, Thermococcus kodakarensis; details: ATP in excess, 10 mM MgCl2, 50 mM NaHCO3 pH 9.0, room temperature
[8] = substrate: Nc1ncnc2c1ncn2[C@@H]1O[C@H](COP(=O)(O)OP(=O)(O)O)[C@@H](O)[C@H]1O; experiment: purified protein, by the assay type
[9] = substrate: NC(=O)C1=CN([C@@H]2O[C@H](COP(=O)(O)OP(=O)(O)OC[C@H]3O[C@@H](n4cnc5c(N)ncnc54)[C@H](O)[C@@H]3O)[C@@H](O)[C@H]2O)C=CC1; experiment: purified protein; details: O2, 50 mM sodium phosphate pH 7, 1 mg/mL BSA, ambient temperature

Km [1]: 390 ± 8 µM
Molecule: CC(=O)OP(=O)(O)O [acetyl phosphate]

B1: FruASc (Staphylococcus carnosus subsp. carnosus TM300) (protein)
chain: NQEQFDKIKNGKGFIAALDQSGGSTPKALKDYGVEENEYSNDEEMFNLVHDMRTRIITSPAFNGEKILGAILFEQTMDREVEGKYTGSYLADKGIVPFLKVDKGLAEEADGVQLMKPIPDLDKLLDRANERGIFGTKMRSNILENNKEAIEKVVKQQFEVAKEIIAAGLVPIIEPEVNINAKDKEAIEANLAEAIKAELDNLKKDQYVMLKLTIPTKVNAYSELIEHPQVIRVVALSGGYSRDEANKILKQNDGLIASFSRALVSDLNAQQSDAEFNEKLQEAIDTIFDASVNKA
Km [2]: 500 ± 80 µM | kcat [2]: 16 ± 2 s⁻¹

B2: G3PDEc-NOXCa-Est2Aa (Escherichia coli K-12) (protein)
chain: MNQRNASMTVIGAGSYGTALAITLARNGHEVVLWGHDPEHIATLERDRCNAAFLPDVPFPDTLHLESDLATALAASRNILVVVPSHVFGEVLRQIKPLMRPDARLVWATKGLEAETGRLLQDVAREALGDQIPLAVISGPTFAKELAAGLPTAISLASTDQTFADDLQQLLHCGKSFRVYSNPDFIGVQLGGAVKNVIAIGAGMSDGIGFGANARTALITRGLAEMSRLGAALGADPATFMGMAGLGDLVLTCTDNQSRNRRFGMMLGQGMDVQSAQEKIGQVVEGYRNTKEVRELAHRFGVEMPITEEIYQVLYCGKNAREAALTLLGRARKDERSSH
Km [3]: 164 ± 10 µM | Km [4]: 659 ± 47 µM | kcat [4]: 7 ± 0.6 s⁻¹ | kcat/Km [4]: 11000 M⁻¹ s⁻¹

B3: G3PDEc (Escherichia coli K-12) (protein)
chain: B2 chain
Km [5]: 59 ± 4 µM | kcat [5]: 85 ± 11 s⁻¹

B4: GlpKTK-AceKMs-Est2Aa (Thermococcus kodakarensis KOD1) (protein)
chain: MEKFVLSLDEGTTSARAIIFDRESNIHGIGQYEFPQHYPRPGWVEHNPEEIWDAQLRAIKDAIQSARIEPNQIAAIGVTNQRETTLVWDKDGKPLYNAIVWQCRRTAEMVEEIKREYGTMIKEKTGLVPDAYFSASKLKWLLDNVPGLREKAEKGEVMFGTVDTFLIYRLTGEHVTDYSNASRTMLFNIKKLDWDDELLELFDIPESVLPEVRESSEVYGYTKKELLGAEIPVSGDAGDQQAALFGQAAFEAGMVKATYGTGSFILVNTDKMVLYSDNLLTTIAWGLNGRVSYALEGSIFVTGAAVQWLRDGIKIIKHASETEELATKLESNEGVYFVPAFVGLGAPYWDQFARGIIIGITRGTGREHLARATLEAIAYLTRDVVDEMEKLVQIKELRVDGGATANDFLMQFQADILNRKVIRPVVKETTALGAAYLAGLAVDYWADTREIAELWKAERIFEPKMDEKTRERLYKGWKEAVKRAMGWAKVVDSAKSN
Km [6]: 16 ± 4 µM | kcat [6]: 1400 ± 54 s⁻¹ | kcat/Km [6]: 8.6e+07 M⁻¹ s⁻¹

B5: GlpKTk (Thermococcus kodakarensis KOD1) (protein)
chain: B4 chain
Km [7]: 15 ± 2 µM | kcat [7]: 940 ± 8 s⁻¹

B6: GlpKTk-AceKMs-Est2Aa (Mycolicibacterium smegmatis MC2 155) (protein)
chain: T1 sequence (A0QQK1 1-376)
Km [8]: 398 ± 29 µM

B7: NoxCa (Anaerocolumna aminovalerica) (protein)
chain: MKIVVIGCTHAGTAAVKTILKENPEAEITIFERNDNISFLSCGIALYVGGVVKDPAGLFYSNPEELSKMGANVKIKHNVKSIDTKSKKVIAEDMNTGEEIEVSYDKLVNTTGSWPIIPPIPGIESKNILLCKNYDQANVIIRQTKDAKKIVIVGGGYIGIELVEAFQKSGKQVTLIDGLDRILNKYLDKEFTDILEDDLKKNGINLALDQCVKSFKANENGEVTSVETTKGEYEADMVILCVGFRPNNELLKGKVDMLPNDAIIVDEYMRTSDPDIFAAGDSCAVHYNPNGNYAYIPLATNAVRMGMLIGKNISTPKVKYRGTQSTSGLNLFGYNIGSTGVTVSGAPQIGLNVRSVIVKDNYRPEFMPTNEEIIMQLVYEVGTNRIVGGQVMSKYDITQSANTLSLAIQNKMTIEDLAYVDFFFQPHFDRPWNYLNILGLAALEQEGL
Km [9]: 258 ± 21 µM | kcat [9]: 1,252 ± 182 s-1
